Data published in patent US12570711B2, “Platforms for co-stimulation, novel car designs and other enhancements for adoptive cellular therapy” (Angeles Therapeutics, Inc., priority 2017, dated 2026).

Legend:
[1] = tested on: RAJI-Luc cells; experiment: NSG mice xenografted with RAJI-Luc cells, CD19-CAR T cells with FKBP-fusion modules, with or without AP20187; assay type: in vivo, mouse; conditions: AP20187 40 μg every day for 10 days intraperitoneal
Method: T cells expressing the CAR and these accessory modules are tested using in vitro assays in the absence and presence of the dimerizer AP20187 (100 nM). […] Half the mice in each group (n =6) are administered 40 μg of AP20187 every day for 10 days by intraperitoneal injection as described previously (Chinnery et al, J Immunol 2009; 182:2738-2744).

[2] = target: T1, human MPL (Homo sapiens, UniProt P40238); experiment: NFAT-driven GFP expression and IL2 production of parental and TCR-deficient J-N-G cells exposed to HEL.92.1.7 cells; assay type: cell-based; conditions: MPL-specific TFP-expressing J-N-G cells with the corresponding TCR chain knocked out; HEL.92.1.7 co-culture
T1 construct: endogenous in cells; host or cells: HEL-92.1.7 (HEL) cells
T1 sequence (P40238 26-635): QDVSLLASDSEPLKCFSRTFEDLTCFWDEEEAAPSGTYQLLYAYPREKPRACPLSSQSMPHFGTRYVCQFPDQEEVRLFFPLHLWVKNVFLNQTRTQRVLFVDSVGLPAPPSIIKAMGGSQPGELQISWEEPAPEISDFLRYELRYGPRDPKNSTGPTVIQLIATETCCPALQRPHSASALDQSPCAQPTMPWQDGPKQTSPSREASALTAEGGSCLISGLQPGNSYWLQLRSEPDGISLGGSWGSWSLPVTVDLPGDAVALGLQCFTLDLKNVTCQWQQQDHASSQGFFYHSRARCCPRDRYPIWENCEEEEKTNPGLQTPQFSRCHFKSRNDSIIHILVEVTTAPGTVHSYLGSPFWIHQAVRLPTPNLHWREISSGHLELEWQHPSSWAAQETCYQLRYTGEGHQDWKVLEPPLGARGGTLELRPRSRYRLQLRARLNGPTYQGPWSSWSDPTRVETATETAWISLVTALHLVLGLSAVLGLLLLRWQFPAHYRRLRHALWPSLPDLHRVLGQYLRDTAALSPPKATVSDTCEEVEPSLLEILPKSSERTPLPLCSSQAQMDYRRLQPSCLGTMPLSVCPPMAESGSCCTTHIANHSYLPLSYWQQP
Description: Jurkat-NFAT-GFP (J-N-G) cells (T cell lymphoma) are infected with lentiviral vectors expressing gRNAs targeting TCRα and TCRβ1/β2 constant chains and coexpressing Streptococcus Pyogenes Cas9. The exemplary gRNA target sequences for TCRα chains are given in SEQ ID NO: 7754 and 7755. The exemplary gRNA target sequences for TCRβ1/β2 chains are given in SEQ ID NO: 7756-7758. In an alternative embodiment, the TCRα and TCRβ1/β2 constant chain loci are targeting using gRNA and TALONs as described in Knipping F et al, Molecular Therapy: Methods & Clinical Development, Vol 4, 2017. J-N-G cells lacking the expression of TCRα or TCRβ1/β2 chains are purified by cell sorting using antibodies directed against TCR/CD3 complex. […] Expression of TFPs in the cells is determined by immunostaining with Protein L staining and by staining with MPL-ECD-GGSG-NLuc-AcVS fusion protein (SEQ ID NO: 4923). J-N-G parental cells show robust TFP expression on cell surface while J-N-G cells lacking TCRα or TCRβ1/β2 chains show poor to absent TFP expression. The different populations of J-N-G cells are exposed to HEL.92.1.7 target cells for 24 hours and examined for increase in NFAT-promoter driven GFP expression and IL2 production. J-N-G parental cells expressing MPL-specific TFPs show marked increase in GFP fluorescence and IL2 secretion upon co-culture with HEL.92.1.7 cells. […]

CC[C@H](C(=O)N1CCCC[C@H]1C(=O)O[C@H](CCc1ccc(OC)c(OC)c1)c1cccc(OCC(=O)NCC(CNC(=O)COc2cccc([C@@H](CCc3ccc(OC)c(OC)c3)OC(=O)[C@@H]3CCCCN3C(=O)[C@@H](CC)c3cc(OC)c(OC)c(OC)c3)c2)CN(C)C)c1)c1cc(OC)c(OC)c(OC)c1 [AP20187]
expansion of CAR-T cells in vivo [1]: promote the expansion of CAR-T cells

B1: IgSP-[hTRAC-opt2]: codon optimized TCRα constant chain with signal peptide (protein)
chain: MDWIWRILFLVGAATGAHSFEGGTRFEGGLEIQNPDPAVYQLRDSKSSDKSVCLFTDFDSQTNVSQSKDSDVYITDKTVLDMRSMDFKSNSAVAWSNKSDFACANAFNNSIIPEDTFFPSPESSCDVKLVEKSFETDTNLNFQNLSVIGFRILLLKVAGFNLLMTLRLWSS
TFP surface expression, GFP expression and IL2 secretion after expression of the constant chain [2]: increased expression of TFP on the cell surface and induction of GFP expression and IL2 secretion

B2: IgSP-[hTRBC-opt2]: codon optimized TCRβ constant chain with signal peptide (protein)
chain: MDWIWRILFLVGAATGAHSFEGGTREDLKNVFPPEVAVFEPSEAEISHTQKATLVCLATGFYPDHVELSWWVNGKEVHSGVSTDPQPLKEQPALNDSRYCLSSRLRVSATFWQNPRNHFRCQVQFYGLSENDEWTQDRAKPVTQIVSAEAWGRADCGFTSESYQQGVLSATILYEILLGKATLYAVLVSALVLMAMVKRKDSRG
TFP surface expression, GFP expression and IL2 secretion after expression of the constant chain [2]: increased expression of TFP on the cell surface and induction of GFP expression and IL2 secretion
